For assay [1], the system named is bone marrow progenitor cells. Briefly: Colony assay: clonal proliferation and differentiation of bone marrow progenitor cells in semi-solid agar. Format: cell-based. To be noted: concentration of IL-3 mutant giving 50% of biological activity compared to that of wild type IL-3; mean ± SD. As for the experimental part: (a) Colony assay: this assay measured the clonal proliferation and differentiation of bone marrow progenitor cells in semi-solid agar and was carried out as described (Lopez et. al., 1985, Blood 72, 1797-1804). Briefly, low density, macrophage-depleted bone marrow cells were cultured at a concentration of 0.5 to 1×10^5 /mL in Iscove's modified Dulbecco's medium (IMDM, GIBCI, Grant Island, N.Y.), containing 0.33% agar (Difco, Detroit), 25% FCS (Commonwealth Serum Laboratories, Parkville, Victoria, Australia), and 20 μmol/LK2-mercaptoethanol. Different dilutions of IL-3- containing COS cell supernatants were added to each plate. Plates were prepared in triplicate and scored after incubation at 37° C. in 5% CO2 in a humid atmosphere for 14 days. Clones containing 40 cells were scored as colonies.

The test system of assay [2] is chronic myeloid leukaemic (CML) cells. Briefly: Proliferation of chronic myeloid leukaemic (CML) cells, [3H] thymidine incorporation. Format: cell-based, human. To be noted: for stimulation of CML cell proliferation: FIG. 2, FIG. 8. As for the experimental part:
(b ) Proliferation of chronic myeloid leukaemic (CML) cells: Primarily CML cells from one patient were selected for their ability to incorporate [^3 H] thymidine in response to IL-3 as described (Lopez el. al., supra ). Briefly, CML cells were placed at 2×10^5 cells/mL fresh medium containing different concentrations of IL-3. Cells were incubated for 24 hours in a flat bottom 96-well NUNCLON plates (2×10^4 cells/well) before being pulsed with [^3 H] thymidine (0.5 μCi/well) for four more hours at 37° C. The cells were then harvested onto glass filters with a Titertek automated cell harvester and counted into a Beckman liquid scintillation counter. Data are expressed in cpm, and each point is the mean of six replicates.
(Uptake of a labelled nucleoside into DNA is a usual measure of proliferation.)

For another assay, the system named is monocytes. Briefly: Stimulation of human monocyte adherence (51Cr adhesion assay). Format: cell-based. To be noted: for stimulation of monocyte adherence: FIG. 3. The protocol: (a) Monocyte purification. Monocytes were purified from the peripheral blood of normal donors, obtained from the Adelaide Red Cross Transfusion Service, as previously described (Elliott et. al., 1990, J. Immunol., 145, 167-171). In brief, mononuclear cells were prepared by centrifugation of whole blood on lymphoprep cushions (Nyegaard, Oslo, Norway) and washed twice in HBSS, 0.02% EDTA, 0.1% heat inactivated FCS (Flow Laboratories, North Ryde, Australia) and monocytes were purified in a Beckman J-6M/E elutriator using the Sanderson chamber, a flow rate of 12 ml/min and a constant rotor speed of 2050 rpm. Cells remaining in the chamber after 30 min were collected, washed twice in HBSS, and used immediately. Using these methods, monocyte purity as assessed by morphology and nonspecific-esterase staining was always >90% and usually >95%. The major contaminating cell types were lymphocytes and granulocytes (principally basophils).
(b) Adhesion assay. Adhesion was measured by an isotopic method essentially as described (Elliott et. al., supra). In brief, purified monocytes (0.5 to 1×10^8) were resuspended in 1 ml RPMI 1640 with 0.1% FCS and antibiotics and incubated for 30 min at 37° C. with 500 μCi^51 Cr in the form of sodium chromate (Amersham International., Buckinghamshire, England). Cells were washed thrice in RPMI 1640 and resuspended in culture medium consisting of RPMI 1640, 10% FCS, antibiotics, and 0.2% sodium bicarbonate. For measurement of adhesion, 1 to 2.5×10^5 monocytes were aliquotted per well in 96-well microtitre plates (Nunc, Karnstrup, Denmark) together with stimuli or control medium to a total volume of […], and incubated for the indicated periods. […] At harvest, samples of supernatant were taken to assess spontaneous ^51 Cr release (usually <10% of cell-associated radioactivity), wells were washed three times with RPMI 1640 at 37° C., and residual adherent cells lysed in 10 mM Tris-hydrochloride, and 1% Nonident p40 detergent (Sigma). Lysates were transferred to tubes and counted in a Packard auto-gamma 5650. Percent adherence was calculated according to the formula: [formula]

The target in assay [3] is T1, IL-3 high affinity receptor of monocytes (Homo sapiens, UniProt P26951+P32927).
T1 construct: endogenous in cells; host or cells: freshly purified human peripheral blood monocytes
T1 sequence (P26951 19-378): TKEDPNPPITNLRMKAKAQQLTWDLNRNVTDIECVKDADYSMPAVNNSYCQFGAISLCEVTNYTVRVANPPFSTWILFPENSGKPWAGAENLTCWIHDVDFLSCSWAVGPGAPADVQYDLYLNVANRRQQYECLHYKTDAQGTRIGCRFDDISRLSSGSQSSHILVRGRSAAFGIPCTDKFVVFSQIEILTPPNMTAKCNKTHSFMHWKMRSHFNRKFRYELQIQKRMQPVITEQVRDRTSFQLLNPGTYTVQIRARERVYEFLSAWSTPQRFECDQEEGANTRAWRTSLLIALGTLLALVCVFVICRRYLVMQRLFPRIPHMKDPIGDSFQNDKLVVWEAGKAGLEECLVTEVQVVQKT
T1 sequence (P32927 17-897): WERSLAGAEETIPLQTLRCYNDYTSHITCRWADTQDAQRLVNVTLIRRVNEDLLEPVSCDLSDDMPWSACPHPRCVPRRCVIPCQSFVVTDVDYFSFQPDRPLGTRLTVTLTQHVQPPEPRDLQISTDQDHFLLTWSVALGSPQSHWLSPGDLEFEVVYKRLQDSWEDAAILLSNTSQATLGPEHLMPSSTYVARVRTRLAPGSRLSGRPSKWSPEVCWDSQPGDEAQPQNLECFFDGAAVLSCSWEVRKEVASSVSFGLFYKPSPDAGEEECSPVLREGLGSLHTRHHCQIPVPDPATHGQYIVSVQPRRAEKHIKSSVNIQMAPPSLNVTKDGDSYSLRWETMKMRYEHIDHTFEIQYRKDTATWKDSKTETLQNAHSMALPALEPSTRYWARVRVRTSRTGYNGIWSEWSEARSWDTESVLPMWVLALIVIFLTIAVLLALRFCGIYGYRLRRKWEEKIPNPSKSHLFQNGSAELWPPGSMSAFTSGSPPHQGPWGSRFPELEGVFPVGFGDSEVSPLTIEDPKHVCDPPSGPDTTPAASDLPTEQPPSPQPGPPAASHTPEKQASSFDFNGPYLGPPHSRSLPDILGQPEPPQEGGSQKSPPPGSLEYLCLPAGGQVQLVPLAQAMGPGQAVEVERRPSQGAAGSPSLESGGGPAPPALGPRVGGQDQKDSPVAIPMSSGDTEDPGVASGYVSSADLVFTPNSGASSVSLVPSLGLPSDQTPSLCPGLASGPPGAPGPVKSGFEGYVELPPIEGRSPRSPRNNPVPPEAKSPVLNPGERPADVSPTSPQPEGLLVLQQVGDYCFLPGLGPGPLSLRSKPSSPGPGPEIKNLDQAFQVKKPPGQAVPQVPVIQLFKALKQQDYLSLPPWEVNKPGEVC
The experiment in a line: Competition for 125I-IL-3 binding to the high affinity receptor of monocytes. To be noted: FIG. 5, at the concentrations tested. The protocol: (a) Radioiodination of hIL-3: rh IL-3 (gift from Dr. L. Park, Immunex Corporation, Seattle, Wash.) was radioiodinated by the ICI method as previously described (Contreras et. al., supra). Iodinated protein was separated from free ^125 I by chromatography on a Sephadex G-25 PD 10 column (Pharmacia, Uppsala, Sweden) equilibrated in phosphate-buffered saline (PBS) containing 0.02% Tween 20, and stored at 4° C. for up to 4 weeks. Before use, the iodinated protein was purified from Tween and nonprotein-associated radioactivity by cation exchange chromatography on a 0.3-ml CM-Sepharose CL-6B column (Pharmacia) and stored at 4° C. for up to 5 days.
(b) Competition Binding assay. Freshly purified monocytes were suspended in binding medium consisting of RPMI 1640 supplemented with 20 mmol/L/HEPES and 0.5% bovine serum albumin (BSA). […] Cell suspensions were then overlaid on 0.2 mL FCS at 4° C. and centrifuged for 30 seconds at a maximum speed in a Beckman Microfugre 12. The tip of each tube was cut off above the visible cell pellet and counted in a Packard Auto-Gamma 5650 (Downer's Grove, Ill). The results are expressed as Percent competition where 100% is the competition observed in the presence of 100 fold excess native IL-3.

The mark [4] stands for this setting: concentration of IL-3 mutant giving 50% of biological activity compared to that of wild type IL-3.

B1: M6: human IL-3 mutant, amino acid 101 (Asp) replaced by Ala (protein, UniProt P08700 20-152, looked up, variant D101A)
Interleukin-3: APMTQTTPLKTSWVNCSNMIDEIITHLKQPPLPLLDFNNLNGEDQDILMENNLRRPNLEAFNRAVKSLQNASAIESILKNLLPCLPLATAAPTRHPIHIKAGDWNEFRRKLTFYLKTLENAQAQQTTLSLAIF
For the molecule B1, in assay [1], the “Relative biological activity, PROLIFERATION COLONIES” value is listed as 104 ± 35. In addition, the “stimulation of CML cell proliferation” value in assay [2] is “more potent than the wild type IL-3”. Besides, the “Relative biological activity, PROLIFERATION CML” value in assay [2] (setting [4]) was determined as 205. In addition, in the assay on monocytes, the “stimulation of monocyte adherence” value is “more potent than the wild type IL-3”. The “Relative biological activity, MONOCYTE” value in the assay with monocytes (setting [4]) amounted to 153 ± 48.

B2: M25: human IL-3 mutant with substitution of residues 21, 22 and 25 (protein, UniProt P08700 20-152, looked up, variant D21A E22L T25A)
Interleukin-3: APMTQTTPLKTSWVNCSNMIALIIAHLKQPPLPLLDFNNLNGEDQDILMENNLRRPNLEAFNRAVKSLQNASAIESILKNLLPCLPLATAAPTRHPIHIKDGDWNEFRRKLTFYLKTLENAQAQQTTLSLAIF
Take B2: in assay [3], the “binding to high affinity IL-3 receptors of monocytes” value is given as “negative at binding”. For the same molecule, the “stimulation of CML cell proliferation” value in assay [2] was “lack of stimulation”. Further, in the assay on monocytes, the “stimulation of monocyte adherence” value is “lack of stimulation”.

The values above are taken from patent US5591427A, “Human Interleukin-3(Il-3) variants and their use to promote or antagonize IL-3-mediated processes” (Medvet Science Pty. Ltd., priority 1979, dated 1997).
